# In patent US20180016327A1 (Chugai, published 2018):
# Molecular target: T1, human C5 (human, UniProt P01031 19-673; P01031 678-1676, Beta and alpha chains are disulfide-linked and the protein is glycosylated.)
# T1 construct: Either in-house recombinant C5 or plasma derived C5 (CALBIOCHEM) was used; also called recombinant human C5; plasma derived human C5
# Assay: Biacore, captured antibody, pH 7.4, 37 C;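 note: biacore binding response of anti-C5 antibody light chain variants captured on chip with human C5 injected, ACES running buffer containing 1.2 mM CaCl₂, parent light chain antibody set to 100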
# Description: The light chain variants were tested for the binding affinity to C5 at pH 7.4 and at 37 degrees C. using Biacore T200 instrument (GE Healthcare) or Biacore 4000 instrument (GE Healthcare). […] Anti-C5 antibodies were captured on an immobilized molecule, and then human C5 was injected. The running buffer used was pH 7.4 ACES Buffer containing 1.2 mM Ca (20 mM ACES, 150 mM NaCl, 1.2 mM CaCl₂, 0.05% Tween 20). A value, % binding, was determined by normalizing binding response with that of antibody comprising parent light chain as 100.
row,% binding (parent = 100),Binder
1,17.5%,"CFP0021 21L 32N (antibody, V domains shown) VH: QVQLVESGGGLVQPGGSLRLSCAASGFTFSDHYMDWVRQAPGKGLEWVGRTRNKANSYTTEYAASVKGRFTISRDDSKNSLYLQMNSLKTEDTAVYYCARTGMMYWGIFDVWGQGTLVTVSS VL: DIQMTQSPSSLSASVGDRVTITCRASQSIEDNLAWYQQKPGKAPKLLIYHASTLQSGVPSRFSGSGSGTDFTLTISSLQPEDFATYYCQQHDSYPLTFGQGTKVEIK"
2,73.2%,"CFP0021 21L 53S (antibody, V domains shown) VH: QVQLVESGGGLVQPGGSLRLSCAASGFTFSDHYMDWVRQAPGKGLEWVGRTRNKANSYTTEYAASVKGRFTISRDDSKNSLYLQMNSLKTEDTAVYYCARTGMMYWGIFDVWGQGTLVTVSS VL: DIQMTQSPSSLSASVGDRVTITCRASQSIEDDLAWYQQKPGKAPKLLIYHASSLQSGVPSRFSGSGSGTDFTLTISSLQPEDFATYYCQQHDSYPLTFGQGTKVEIK"
3,14.4%,"CFP0021 21L 34N (antibody, V domains shown) VH: QVQLVESGGGLVQPGGSLRLSCAASGFTFSDHYMDWVRQAPGKGLEWVGRTRNKANSYTTEYAASVKGRFTISRDDSKNSLYLQMNSLKTEDTAVYYCARTGMMYWGIFDVWGQGTLVTVSS VL: DIQMTQSPSSLSASVGDRVTITCRASQSIEDDLNWYQQKPGKAPKLLIYHASTLQSGVPSRFSGSGSGTDFTLTISSLQPEDFATYYCQQHDSYPLTFGQGTKVEIK"
4,75.7%,"CFP0021 21L 53H (antibody, V domains shown) VH: QVQLVESGGGLVQPGGSLRLSCAASGFTFSDHYMDWVRQAPGKGLEWVGRTRNKANSYTTEYAASVKGRFTISRDDSKNSLYLQMNSLKTEDTAVYYCARTGMMYWGIFDVWGQGTLVTVSS VL: DIQMTQSPSSLSASVGDRVTITCRASQSIEDDLAWYQQKPGKAPKLLIYHASHLQSGVPSRFSGSGSGTDFTLTISSLQPEDFATYYCQQHDSYPLTFGQGTKVEIK"
5,40.6%,"CFP0021 21L 50S (antibody, V domains shown) VH: QVQLVESGGGLVQPGGSLRLSCAASGFTFSDHYMDWVRQAPGKGLEWVGRTRNKANSYTTEYAASVKGRFTISRDDSKNSLYLQMNSLKTEDTAVYYCARTGMMYWGIFDVWGQGTLVTVSS VL: DIQMTQSPSSLSASVGDRVTITCRASQSIEDDLAWYQQKPGKAPKLLIYSASTLQSGVPSRFSGSGSGTDFTLTISSLQPEDFATYYCQQHDSYPLTFGQGTKVEIK"
6,44%,"CFP0021 21L 50E (antibody, V domains shown) VH: QVQLVESGGGLVQPGGSLRLSCAASGFTFSDHYMDWVRQAPGKGLEWVGRTRNKANSYTTEYAASVKGRFTISRDDSKNSLYLQMNSLKTEDTAVYYCARTGMMYWGIFDVWGQGTLVTVSS VL: DIQMTQSPSSLSASVGDRVTITCRASQSIEDDLAWYQQKPGKAPKLLIYEASTLQSGVPSRFSGSGSGTDFTLTISSLQPEDFATYYCQQHDSYPLTFGQGTKVEIK"

# Further lines, the binder ahead of its results:
row,Binder,% binding (parent = 100)
1,"CFP0021 21L 32Q (antibody, V domains shown) VH: QVQLVESGGGLVQPGGSLRLSCAASGFTFSDHYMDWVRQAPGKGLEWVGRTRNKANSYTTEYAASVKGRFTISRDDSKNSLYLQMNSLKTEDTAVYYCARTGMMYWGIFDVWGQGTLVTVSS VL: DIQMTQSPSSLSASVGDRVTITCRASQSIEDQLAWYQQKPGKAPKLLIYHASTLQSGVPSRFSGSGSGTDFTLTISSLQPEDFATYYCQQHDSYPLTFGQGTKVEIK",80.4%
2,"CFP0021 21L 50A (antibody, V domains shown) VH: QVQLVESGGGLVQPGGSLRLSCAASGFTFSDHYMDWVRQAPGKGLEWVGRTRNKANSYTTEYAASVKGRFTISRDDSKNSLYLQMNSLKTEDTAVYYCARTGMMYWGIFDVWGQGTLVTVSS VL: DIQMTQSPSSLSASVGDRVTITCRASQSIEDDLAWYQQKPGKAPKLLIYAASTLQSGVPSRFSGSGSGTDFTLTISSLQPEDFATYYCQQHDSYPLTFGQGTKVEIK",33.4%
3,"CFP0021 21L 50Y (antibody, V domains shown) VH: QVQLVESGGGLVQPGGSLRLSCAASGFTFSDHYMDWVRQAPGKGLEWVGRTRNKANSYTTEYAASVKGRFTISRDDSKNSLYLQMNSLKTEDTAVYYCARTGMMYWGIFDVWGQGTLVTVSS VL: DIQMTQSPSSLSASVGDRVTITCRASQSIEDDLAWYQQKPGKAPKLLIYYASTLQSGVPSRFSGSGSGTDFTLTISSLQPEDFATYYCQQHDSYPLTFGQGTKVEIK",74.9%
4,"CFP0021 21L 91S (antibody, V domains shown) VH: QVQLVESGGGLVQPGGSLRLSCAASGFTFSDHYMDWVRQAPGKGLEWVGRTRNKANSYTTEYAASVKGRFTISRDDSKNSLYLQMNSLKTEDTAVYYCARTGMMYWGIFDVWGQGTLVTVSS VL: DIQMTQSPSSLSASVGDRVTITCRASQSIEDDLAWYQQKPGKAPKLLIYHASTLQSGVPSRFSGSGSGTDFTLTISSLQPEDFATYYCQQSDSYPLTFGQGTKVEIK",17.8%
5,"CFP0021 21L 50D (antibody, V domains shown) VH: QVQLVESGGGLVQPGGSLRLSCAASGFTFSDHYMDWVRQAPGKGLEWVGRTRNKANSYTTEYAASVKGRFTISRDDSKNSLYLQMNSLKTEDTAVYYCARTGMMYWGIFDVWGQGTLVTVSS VL: DIQMTQSPSSLSASVGDRVTITCRASQSIEDDLAWYQQKPGKAPKLLIYDASTLQSGVPSRFSGSGSGTDFTLTISSLQPEDFATYYCQQHDSYPLTFGQGTKVEIK",53%
6,"CFP0021 21L 91R (antibody, V domains shown) VH: QVQLVESGGGLVQPGGSLRLSCAASGFTFSDHYMDWVRQAPGKGLEWVGRTRNKANSYTTEYAASVKGRFTISRDDSKNSLYLQMNSLKTEDTAVYYCARTGMMYWGIFDVWGQGTLVTVSS VL: DIQMTQSPSSLSASVGDRVTITCRASQSIEDDLAWYQQKPGKAPKLLIYHASTLQSGVPSRFSGSGSGTDFTLTISSLQPEDFATYYCQQRDSYPLTFGQGTKVEIK",1.5%
7,"CFP0021 21L 50T (antibody, V domains shown) VH: QVQLVESGGGLVQPGGSLRLSCAASGFTFSDHYMDWVRQAPGKGLEWVGRTRNKANSYTTEYAASVKGRFTISRDDSKNSLYLQMNSLKTEDTAVYYCARTGMMYWGIFDVWGQGTLVTVSS VL: DIQMTQSPSSLSASVGDRVTITCRASQSIEDDLAWYQQKPGKAPKLLIYTASTLQSGVPSRFSGSGSGTDFTLTISSLQPEDFATYYCQQHDSYPLTFGQGTKVEIK",38.8%
8,"CFP0021 21L 50Q (antibody, V domains shown) VH: QVQLVESGGGLVQPGGSLRLSCAASGFTFSDHYMDWVRQAPGKGLEWVGRTRNKANSYTTEYAASVKGRFTISRDDSKNSLYLQMNSLKTEDTAVYYCARTGMMYWGIFDVWGQGTLVTVSS VL: DIQMTQSPSSLSASVGDRVTITCRASQSIEDDLAWYQQKPGKAPKLLIYQASTLQSGVPSRFSGSGSGTDFTLTISSLQPEDFATYYCQQHDSYPLTFGQGTKVEIK",61.1%
9,"CFP0021 21L 53N (antibody, V domains shown) VH: QVQLVESGGGLVQPGGSLRLSCAASGFTFSDHYMDWVRQAPGKGLEWVGRTRNKANSYTTEYAASVKGRFTISRDDSKNSLYLQMNSLKTEDTAVYYCARTGMMYWGIFDVWGQGTLVTVSS VL: DIQMTQSPSSLSASVGDRVTITCRASQSIEDDLAWYQQKPGKAPKLLIYHASNLQSGVPSRFSGSGSGTDFTLTISSLQPEDFATYYCQQHDSYPLTFGQGTKVEIK",97.6%
